This is an account of results in PMC10623103, “A case of hyperlysinemia identified by urine newborn screening” (JIMD Reports, 2023).

This data set concerns the molecule itself. Nature of the data set: SEC; Superdex200 Increase on an AKTA FPLC after IMAC; uncut His-SUMOstar-LOR; elution compared with the expected tetrameric size and the aggregation peak.

B1: 2-aminoadipic semialdehyde synthase (AASS) lysine 2-oxoglutarate reductase (LOR) domain, p.T371I variant, His-SUMOstar-LOR [residues 21-470] (domain or fragment, human, UniProt Q9UDR5 21-470, looked up)
chain: HHKAVLAVRREDVNAWERRAPLAPKHIKGITNLGYKVLIQPSNRRAIHDKDYVKAGGILQEDISEACLILGVKRPPEEKLMSRKTYAFFSHTIKAQEANMGLLDEILKQEIRLIDYEKMVDHRGVRVVAFGQWAGVAGMINILHGMGLRLLALGHHTPFMHIGMAHNYRNSSQAVQAVRDAGYEISLGLMPKSIGPLTFVFTGTGNVSKGAQAIFNELPCEYVEPHELKEVSQTGDLRKVYGTVLSRHHHLVRKTDAVYDPAEYDKHPERYISRFNTDIAPYTTCLINGIYWEQNTPRLLTRQDAQSLLAPGKFSPAGVEGCPALPHKLVAICDISADTGGSIEFMTECTIIEHPFCMYDADQHIIHDSVEGSGILMCSIDNLPAQLPIEATECFGDMLYPYVEEMILSDATQPLESQNFSPVVRDAVITSNGTLPDKYKYIQTLRESRE
notes: 2-aminoadipic semialdehyde synthase (AASS), LOR domain, residues 21-470, patient variant c.1112C>T (p.T371I); Purified as uncut SUMOstar-LOR; calculated MW of the His-SUMOstar-LOR monomer is 62.4 kD; PDB 8E8U is the wild-type LOR structure (cited); also called I371 variant; LOR variant; source: E. coli LOBSTR cells, purified (IMAC, size-exclusion chromatography on Superdex200 Increase); not …
Consider B1, for which the binding result is reported as “binds”.
